This note sets out measurements from US20140348838A1 (AbbVie / Abbott, published 2014).

Experiment [1] has as its target T1, cynomolgus IL-1α (cynomolgus, UniProt P79340 113-271).
T1 construct: also called cyno IL-1α; Cyno IL-1α
T1 sequence (looked up): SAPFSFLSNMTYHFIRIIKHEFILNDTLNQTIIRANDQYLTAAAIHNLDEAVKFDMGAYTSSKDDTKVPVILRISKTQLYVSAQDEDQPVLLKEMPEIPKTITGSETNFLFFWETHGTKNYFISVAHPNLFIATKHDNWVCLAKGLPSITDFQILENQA
The experiment can be described thus: SPR (Biacore), DVD-Ig captured, antigen in solution. On the technique in general: Surface plasmon resonance follows binding to a sensor surface in real time, without labels.

Experiment [2] has as its target T2, human IL-1α (human, UniProt P01583 113-271, biotinylated in the ELISA (site not stated)).
T2 construct: also called hIL-1α; Human mature IL-1α
T2 sequence: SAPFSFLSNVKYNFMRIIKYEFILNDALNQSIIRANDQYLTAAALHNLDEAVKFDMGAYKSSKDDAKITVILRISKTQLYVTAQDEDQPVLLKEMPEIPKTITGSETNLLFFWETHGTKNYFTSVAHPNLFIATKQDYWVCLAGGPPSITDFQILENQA
The description is as above.

Experiment [3] addresses T1, cynomolgus IL-1α. In words: cell-based or functional assay.
The target of experiment [4] is T2, human IL-1α. The experiment can be described thus: cell-based or functional assay.
For experiment [5], the target named is T2, human IL-1α. In words: ELISA: DVD-Ig captured on anti-human Fc, biotinylated antigen titrated. How it is done: (§1) To determine if the anti-IL-1β mAbs bind to human IL-1β, ELISA plates (Nunc, MaxiSorp, Rochester, N.Y.) were incubated overnight at 4° C. with anti-human Fc antibody diluted in Pierce Coat buffer at 2 μg/ml (Jackson Immunoresearch, West Grove, Pa.). Plates were washed five times in washing buffer (PBS containing 0.05% Tween 20), and blocked for 1 hour at 25° C. with 200 μl per well superblock blocking buffer (Thermo scientific, No. 37515). Blocking buffer was removed by tapping plates, and 2 μg/ml of each antibody in PBS containing 10% Superblock, 0.5% Tween-20 was added to the wells at 100 μl/well and incubated at 25° C. for 1 hour. The wells were washed five times in 1×PBST, and 1 μg/ml biotinylated antigen was titrated at 1:6 serial dilutions (for a range of μg to pg in PBS containing 10% Superblock, 0.05% Tween 20). Each dilution of antigen was then added to the plates and incubated for 1 hour at 25° C. […] The wells were washed five times in 1×PBST, and 100 μl of ULTRA-TMB ELISA (Pierce, Rockford, Ill.) were added per well. Following color development the reaction was stopped with 1N HCL and absorbance at 450 nm was measured.
(§2) IL-1β and IL-1α binding by IL-1β/α DVD-Ig binding proteins was assessed by ELISA (assay described above, Example 2.1).
In general terms: An ELISA detects its analyte on a solid surface through an enzyme-linked reagent.

The target of experiment [6] is T3, human IL-1β (human, UniProt P01584 117-269, biotinylated in the ELISA (site not stated)).
T3 construct: also called hIL-1β; Human mature IL-1β
In words: ELISA: antibody captured on anti-human Fc, biotinylated antigen titrated. How it is done: as §1

Experiment [7] has as its target T3, human IL-1β. In words: cell-based or functional assay.
In experiment [8] the target is T2, human IL-1α. In words: Biacore (SPR), sequential injections on captured DVD-Ig: IL-1α as 2nd injection, after IL-1β.
Experiment [9] has as its target T4, cynomolgus IL-1β (cynomolgus, UniProt P79182 117-268).
T4 sequence (looked up): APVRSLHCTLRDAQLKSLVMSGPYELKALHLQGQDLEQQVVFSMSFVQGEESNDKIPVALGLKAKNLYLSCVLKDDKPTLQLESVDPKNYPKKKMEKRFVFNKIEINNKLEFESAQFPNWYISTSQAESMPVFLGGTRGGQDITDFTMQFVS
In words: cell-based or functional assay.

Experiment [10] addresses T3, human IL-1β. In words: ELISA: DVD-Ig captured on anti-human Fc, biotinylated antigen titrated. How it is done:
as §1, §2

For experiment [11], the target named is T3, human IL-1β. In words: SPR (Biacore), DVD-Ig captured, antigen in solution.
The target in experiment [12] is T4, cynomolgus IL-1β. Described as above.

B1: E26.13-LL-X3 DVD-Ig (bispecific antibody, human IgG1, kappa, L234A L235A)
heavy: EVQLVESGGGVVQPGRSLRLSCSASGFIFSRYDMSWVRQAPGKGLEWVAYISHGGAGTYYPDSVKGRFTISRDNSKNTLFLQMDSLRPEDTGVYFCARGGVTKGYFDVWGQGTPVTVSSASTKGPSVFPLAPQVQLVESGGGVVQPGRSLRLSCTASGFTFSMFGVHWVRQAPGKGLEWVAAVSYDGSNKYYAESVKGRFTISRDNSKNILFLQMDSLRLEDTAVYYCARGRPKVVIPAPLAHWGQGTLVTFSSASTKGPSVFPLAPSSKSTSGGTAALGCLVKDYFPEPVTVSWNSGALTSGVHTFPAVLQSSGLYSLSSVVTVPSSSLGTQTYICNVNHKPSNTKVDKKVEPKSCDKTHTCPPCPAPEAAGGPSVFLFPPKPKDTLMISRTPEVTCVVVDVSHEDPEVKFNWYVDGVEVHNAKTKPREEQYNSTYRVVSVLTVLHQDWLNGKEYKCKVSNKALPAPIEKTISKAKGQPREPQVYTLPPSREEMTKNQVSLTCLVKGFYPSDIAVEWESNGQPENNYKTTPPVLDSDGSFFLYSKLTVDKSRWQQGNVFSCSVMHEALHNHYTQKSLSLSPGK
light: DIQMTQSPSSLSASVGDRVTITCRASGNIHNYLTWYQQTPGKAPKLLIYNAKTLADGVPSRFSGSGSGTDYTFTISSLQPEDIATYYCQHFWSIPYTFGQGTKLQITRTVAAPSVFIFPPDIQMTQSPSSVSASVGDRVTITCRASQGISSWLAWYQQKPGKAPKLLIYEASNLETGVPSRFSGSGSGSDFTLTISSLQPEDFATYYCQQTSSFLLSFGGGTKVEHKRTVAAPSVFIFPPSDEQLKSGTASVVCLLNNFYPREAKVQWKVDNALQSGNSQESVTEQDSKDSTYSLSSTLTLSKADYEKHKVYACEVTHQGLSSPVTKSFNRGEC
notes: Dual variable domain immunoglobulin
In general, Kd refers to the constant that tells how readily two partners part at equilibrium. Lower therefore signals tighter binding. For orientation: koff means the first-order rate constant of dissociation. One may read the kon as the second-order rate constant of association. The low end stands for slow association, the high end for fast association. Usually EC50 stands for the concentration needed to bring the measured effect to its halfway point. Turning to B1, the Kd came out at 3240 pM with cynomolgus IL-1α [1] and 6.15 pM in the experiment with human IL-1α [2]. Also, the koff was 0.00105 s⁻¹ in the experiment with cynomolgus IL-1α [1] and 3.9e-06 s⁻¹ with human IL-1α [2]. For the same molecule, the kon stood at 315000 M⁻¹ s⁻¹ with cynomolgus IL-1α [1] and 646000 M⁻¹ s⁻¹ with human IL-1α [2]. In addition, the “Potency (pM): neutralization of IL-1-induced hIL-8 in MRC5 cells” value (“Potency (pM): neutralization” below) with cynomolgus IL-1α [3] worked out at 1050 pM; in the experiment with human IL-1α [4], 10.2 pM. Also, the EC50 with human IL-1α [5] turned out to be 5.8 pM.

B2: E26.11 (antibody, V domains shown)
VH: EVQLVESGGGVVQPGRSLRLSCSASGFIFSRYDMSWVRQAPGKGLEWVAYISHGGAGTYYPDSVKGRFTISRDNSKNTLFLQMDSLRPEDTAVYYCARGGVYKGYFDVWGQGTPVTVSS
VL: DIQMTQSPSSLSASVGDRVTITCRASGNIHNYLTWYQQTPGKAPKLLIYNAKTLADGVPSRFSGSGSGTDYTFTISSLQPEDIATYYCQHFWSIPYTFGQGTKLQIT
Turning to B2, in the experiment with human IL-1β [6], a half-maximal response (EC50) required 14 pM.

B3: X3-SS-E26.13 DVD-Ig (bispecific antibody, human IgG1, kappa, L234A L235A)
heavy: not shown
light: DIQMTQSPSSVSASVGDRVTITCRASQGISSWLAWYQQKPGKAPKLLIYEASNLETGVPSRFSGSGSGSDFTLTISSLQPEDFATYYCQQTSSFLLSFGGGTKVEHKRTVAAPDIQMTQSPSSLSASVGDRVTITCRASGNIHNYLTWYQQTPGKAPKLLIYNAKTLADGVPSRFSGSGSGTDYTFTISSLQPEDIATYYCQHFWSIPYTFGQGTKLQITRTVAAPSVFIFPPSDEQLKSGTASVVCLLNNFYPREAKVQWKVDNALQSGNSQESVTEQDSKDSTYSLSSTLTLSKADYEKHKVYACEVTHQGLSSPVTKSFNRGEC
notes: as for B1
For the molecule B3, the EC50 in the experiment with human IL-1α [5] is 4.5 pM. In other words, the picomolar range.

B4: X3-LL-E26.13 DVD-Ig (bispecific antibody, human IgG1, kappa, L234A L235A)
heavy: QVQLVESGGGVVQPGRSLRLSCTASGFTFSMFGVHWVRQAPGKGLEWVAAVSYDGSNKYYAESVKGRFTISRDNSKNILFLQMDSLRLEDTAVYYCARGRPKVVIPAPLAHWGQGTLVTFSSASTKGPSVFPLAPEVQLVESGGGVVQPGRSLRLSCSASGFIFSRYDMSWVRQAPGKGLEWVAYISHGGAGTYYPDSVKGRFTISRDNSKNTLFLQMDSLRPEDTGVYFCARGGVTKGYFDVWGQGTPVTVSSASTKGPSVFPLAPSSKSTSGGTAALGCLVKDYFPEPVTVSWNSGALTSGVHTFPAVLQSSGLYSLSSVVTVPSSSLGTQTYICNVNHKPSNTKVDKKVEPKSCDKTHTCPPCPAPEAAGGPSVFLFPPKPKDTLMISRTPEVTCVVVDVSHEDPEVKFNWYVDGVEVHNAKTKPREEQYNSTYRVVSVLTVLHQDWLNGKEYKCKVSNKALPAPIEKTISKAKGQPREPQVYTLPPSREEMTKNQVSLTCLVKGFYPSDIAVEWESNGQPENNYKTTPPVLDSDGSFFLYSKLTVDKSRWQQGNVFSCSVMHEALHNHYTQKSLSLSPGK
light: DIQMTQSPSSVSASVGDRVTITCRASQGISSWLAWYQQKPGKAPKLLIYEASNLETGVPSRFSGSGSGSDFTLTISSLQPEDFATYYCQQTSSFLLSFGGGTKVEHKRTVAAPSVFIFPPDIQMTQSPSSLSASVGDRVTITCRASGNIHNYLTWYQQTPGKAPKLLIYNAKTLADGVPSRFSGSGSGTDYTFTISSLQPEDIATYYCQHFWSIPYTFGQGTKLQITRTVAAPSVFIFPPSDEQLKSGTASVVCLLNNFYPREAKVQWKVDNALQSGNSQESVTEQDSKDSTYSLSSTLTLSKADYEKHKVYACEVTHQGLSSPVTKSFNRGEC
On to B4, for which the “Potency (pM): neutralization” value in the experiment with human IL-1α [4] came to 8.9 pM; with human IL-1β [7] it was 1470 pM.

B5: E26.13-SS-X3 DVD-Ig (bispecific antibody, human IgG1, kappa, L234A L235A)
heavy: not shown
light: DIQMTQSPSSLSASVGDRVTITCRASGNIHNYLTWYQQTPGKAPKLLIYNAKTLADGVPSRFSGSGSGTDYTFTISSLQPEDIATYYCQHFWSIPYTFGQGTKLQITRTVAAPDIQMTQSPSSVSASVGDRVTITCRASQGISSWLAWYQQKPGKAPKLLIYEASNLETGVPSRFSGSGSGSDFTLTISSLQPEDFATYYCQQTSSFLLSFGGGTKVEHKRTVAAPSVFIFPPSDEQLKSGTASVVCLLNNFYPREAKVQWKVDNALQSGNSQESVTEQDSKDSTYSLSSTLTLSKADYEKHKVYACEVTHQGLSSPVTKSFNRGEC
notes: as for B1
As to B5, the Kd is 4110 pM in the experiment with cynomolgus IL-1α [1] and 7.61 pM in the experiment with human IL-1α [2]. For the same molecule, the stoichiometry with human IL-1α [8] was 1.6.

B6: E26.13-SS-X3 JM DVD-Ig (bispecific antibody, human IgG1, kappa, L234A L235A)
heavy: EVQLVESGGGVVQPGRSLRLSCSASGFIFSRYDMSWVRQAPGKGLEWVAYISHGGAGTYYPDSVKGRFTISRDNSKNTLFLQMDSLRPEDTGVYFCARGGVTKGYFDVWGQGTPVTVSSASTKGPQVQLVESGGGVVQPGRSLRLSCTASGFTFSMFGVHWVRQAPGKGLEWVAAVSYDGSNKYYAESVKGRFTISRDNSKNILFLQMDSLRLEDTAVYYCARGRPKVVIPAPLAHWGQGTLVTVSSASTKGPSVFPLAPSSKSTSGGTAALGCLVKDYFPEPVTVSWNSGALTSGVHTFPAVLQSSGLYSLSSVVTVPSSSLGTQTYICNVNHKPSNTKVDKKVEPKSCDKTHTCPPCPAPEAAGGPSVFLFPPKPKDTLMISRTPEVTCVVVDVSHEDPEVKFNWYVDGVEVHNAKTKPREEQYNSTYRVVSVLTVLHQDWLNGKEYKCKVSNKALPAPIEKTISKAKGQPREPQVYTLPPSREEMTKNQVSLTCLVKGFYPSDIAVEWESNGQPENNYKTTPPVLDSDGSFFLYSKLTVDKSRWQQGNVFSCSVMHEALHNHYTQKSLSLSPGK
light: DIQMTQSPSSLSASVGDRVTITCRASGNIHNYLTWYQQTPGKAPKLLIYNAKTLADGVPSRFSGSGSGTDYTFTISSLQPEDIATYYCQHFWSIPYTFGQGTKLQITRTVAAPDIQMTQSPSSVSASVGDRVTITCRASQGISSWLAWYQQKPGKAPKLLIYEASNLETGVPSRFSGSGSGSDFTLTISSLQPEDFATYYCQQTSSFLLSFGGGTKVEIKRTVAAPSVFIFPPSDEQLKSGTASVVCLLNNFYPREAKVQWKVDNALQSGNSQESVTEQDSKDSTYSLSSTLTLSKADYEKHKVYACEVTHQGLSSPVTKSFNRGEC
notes: Dual variable domain immunoglobulin; X3 is mutated in the J-region (X3 JM)
Turning to B6, the “Potency (pM): neutralization” value stood at 1880 pM in the experiment with cynomolgus IL-1α [3], 26.5 pM with human IL-1α [4] and 17.6 pM with cynomolgus IL-1β [9]. The same molecule registered an EC50 in the experiment with human IL-1α [5] of 4.3 pM.

B7: E26.35-SS-X3 JM DVD-Ig (bispecific antibody, human IgG1, kappa, L234A L235A)
heavy: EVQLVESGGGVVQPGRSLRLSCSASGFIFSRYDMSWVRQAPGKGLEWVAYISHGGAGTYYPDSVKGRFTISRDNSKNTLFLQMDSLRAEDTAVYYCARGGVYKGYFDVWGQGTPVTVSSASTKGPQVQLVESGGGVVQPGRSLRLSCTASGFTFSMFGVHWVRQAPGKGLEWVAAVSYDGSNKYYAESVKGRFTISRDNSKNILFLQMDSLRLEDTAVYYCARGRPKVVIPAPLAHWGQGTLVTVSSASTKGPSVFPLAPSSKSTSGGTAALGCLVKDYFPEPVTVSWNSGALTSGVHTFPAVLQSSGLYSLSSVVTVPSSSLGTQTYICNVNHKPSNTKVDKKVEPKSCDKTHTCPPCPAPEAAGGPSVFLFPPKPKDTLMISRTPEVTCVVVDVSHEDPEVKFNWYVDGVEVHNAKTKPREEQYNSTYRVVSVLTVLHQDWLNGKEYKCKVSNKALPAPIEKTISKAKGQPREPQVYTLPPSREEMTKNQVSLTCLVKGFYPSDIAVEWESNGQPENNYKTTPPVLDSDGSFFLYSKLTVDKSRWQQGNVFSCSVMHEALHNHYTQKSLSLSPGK
light: DIQMTQSPSSLSASVGDRVTITCRASGNIHNYLTWYQQTPGKAPKLLIYNAKTLADGVPSRFSGSGSGTDYTFTISSLQPEDIATYYCQHFWSIPYTFGQGTKLQITRTVAAPDIQMTQSPSSVSASVGDRVTITCRASQGISSWLAWYQQKPGKAPKLLIYEASNLETGVPSRFSGSGSGSDFTLTISSLQPEDFATYYCQQTSSFLLSFGGGTKVEIKRTVAAPSVFIFPPSDEQLKSGTASVVCLLNNFYPREAKVQWKVDNALQSGNSQESVTEQDSKDSTYSLSSTLTLSKADYEKHKVYACEVTHQGLSSPVTKSFNRGEC
notes: as for B6
Consider B7, for which the EC50 came out at 4 pM with human IL-1α [5] and 6.3 pM with human IL-1β [10].

B8: E26.35-SS-X3 DVD-Ig (bispecific antibody, human IgG1, kappa, L234A L235A)
heavy: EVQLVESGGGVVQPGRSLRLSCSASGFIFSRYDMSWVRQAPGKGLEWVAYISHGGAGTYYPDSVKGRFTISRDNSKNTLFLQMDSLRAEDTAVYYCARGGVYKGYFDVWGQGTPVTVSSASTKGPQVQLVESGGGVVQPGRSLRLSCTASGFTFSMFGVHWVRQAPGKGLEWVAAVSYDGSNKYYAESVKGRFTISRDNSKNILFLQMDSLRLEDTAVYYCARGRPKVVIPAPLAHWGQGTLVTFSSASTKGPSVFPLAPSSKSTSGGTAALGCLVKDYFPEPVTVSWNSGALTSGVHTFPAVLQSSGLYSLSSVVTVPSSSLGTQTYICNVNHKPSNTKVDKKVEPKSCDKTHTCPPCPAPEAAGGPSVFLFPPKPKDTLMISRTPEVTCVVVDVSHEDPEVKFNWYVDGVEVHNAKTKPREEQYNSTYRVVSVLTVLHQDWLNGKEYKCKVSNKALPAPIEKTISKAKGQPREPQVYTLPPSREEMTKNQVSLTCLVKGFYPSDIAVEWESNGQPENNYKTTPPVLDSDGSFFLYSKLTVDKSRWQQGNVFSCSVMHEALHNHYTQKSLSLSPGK
light: DIQMTQSPSSLSASVGDRVTITCRASGNIHNYLTWYQQTPGKAPKLLIYNAKTLADGVPSRFSGSGSGTDYTFTISSLQPEDIATYYCQHFWSIPYTFGQGTKLQITRTVAAPDIQMTQSPSSVSASVGDRVTITCRASQGISSWLAWYQQKPGKAPKLLIYEASNLETGVPSRFSGSGSGSDFTLTISSLQPEDFATYYCQQTSSFLLSFGGGTKVEHKRTVAAPSVFIFPPSDEQLKSGTASVVCLLNNFYPREAKVQWKVDNALQSGNSQESVTEQDSKDSTYSLSSTLTLSKADYEKHKVYACEVTHQGLSSPVTKSFNRGEC
notes: as for B1
Take B8: the Kd with cynomolgus IL-1α [1] was 3270 pM; with human IL-1α [2], 13.3 pM; with human IL-1β [11] it was 5.03 pM; with cynomolgus IL-1β [12] it was 10.6 pM. Further, the koff was 0.000236 s⁻¹ with cynomolgus IL-1α [1], 2.14e-06 s⁻¹ in the experiment with human IL-1α [2], 6.81e-06 s⁻¹ with human IL-1β [11] and 1.94e-05 s⁻¹ with cynomolgus IL-1β [12]. The kon is 72400 M⁻¹ s⁻¹ with cynomolgus IL-1α [1], 162000 M⁻¹ s⁻¹ with human IL-1α [2], 1.32e+06 M⁻¹ s⁻¹ with human IL-1β [11] and 1.84e+06 M⁻¹ s⁻¹ with cynomolgus IL-1β [12]. Also, the “Potency (pM): neutralization” value with cynomolgus IL-1α [3] is 474 pM; in the experiment with human IL-1α [4], 25.8 pM; with human IL-1β [7] it was 1.8 pM; with cynomolgus IL-1β [9], 0.6 pM. In addition, the figures for the EC50 in the experiment with human IL-1α [5] and with human IL-1β [10] were 6.2 pM and 8 pM, respectively.
